This passage reports Kd and IC50 results from the Immune Epitope Database (IEDB).

For assay [1], the target named is HLA-B*57:01. Put plainly: IEDB peptide-MHC binding, purified MHC/competitive/radioactivity; filed as Kd, often an IC50 or EC50 that approximates it; ≥ and ≤ were set here for values at or beyond the usual limits of such assays.
The target of assay [2] is HLA-B*58:01. The assay is described as above.
The next assay addresses HLA-B*15:17. Put plainly: IEDB peptide-MHC binding, purified MHC/direct/fluorescence; filed as Kd, often an IC50 or EC50 that approximates it; ≥ and ≤ were set here for values at or beyond the usual limits of such assays.
Assay [3] deals with HLA-B*57:01. The assay is described as above.
Assay [4] addresses HLA-B*58:01. Described as above.
The target in the next assay is HLA-A*32:01. Put plainly: IEDB peptide-MHC binding, purified MHC/competitive/radioactivity; filed as Kd, often an IC50 or EC50 that approximates it; ≥ and ≤ were set here for values at or beyond the usual limits of such assays. To be noted: source organism: Dengue virus 1 Brazil/97-11/1997.
The next assay has as its target HLA-A*03:01. Put plainly: IEDB peptide-MHC binding, purified MHC/competitive/fluorescence; filed as Kd, often an IC50 or EC50 that approximates it; ≥ and ≤ were set here for values at or beyond the usual limits of such assays. The settings on record: source organism: Escherichia coli.
The next assay concerns the target HLA-B*27:05. Put plainly: IEDB peptide-MHC binding, purified MHC/direct/fluorescence; filed as Kd, often an IC50 or EC50 that approximates it; ≥ and ≤ were set here for values at or beyond the usual limits of such assays. The settings on record: source organism: Francisella tularensis subsp. holarctica LVS.
The target of the next assay is HLA-B*48:01. The assay is described as above.
In assay [5] the target is HLA-A*02:01. The assay is described as above. To be noted: source organism: Orthohantavirus andesense.
The target of the next assay is HLA-A*02:11. Described as above. To be noted: source organism: Orthohantavirus tulaense.
The target in the next assay is HLA-A*02:12. Described as above. To be noted: source organism: Orthohantavirus tulaense.
The next assay concerns the target HLA-A*02:19. The assay is described as above. To be noted: source organism: Orthohantavirus tulaense.
A further assay concerns the target HLA-A*11:01. Put plainly: IEDB peptide-MHC binding, purified MHC/competitive/fluorescence; ≥ and ≤ were set here for values at or beyond the usual limits of such assays.
For a further assay, the target named is HLA-A*68:02. Put plainly: IEDB peptide-MHC binding, purified MHC/competitive/fluorescence; filed as Kd, often an IC50 or EC50 that approximates it; ≥ and ≤ were set here for values at or beyond the usual limits of such assays.
For the next assay, the target named is HLA-A*68:01. Put plainly: IEDB peptide-MHC binding, purified MHC/competitive/radioactivity; filed as Kd, often an IC50 or EC50 that approximates it; ≥ and ≤ were set here for values at or beyond the usual limits of such assays. To be noted: source organism: Dengue virus 3 Martinique/1243/1999.
The target in the next assay is HLA-B*46:01. Put plainly: IEDB peptide-MHC binding, purified MHC/direct/fluorescence; filed as Kd, often an IC50 or EC50 that approximates it; ≥ and ≤ were set here for values at or beyond the usual limits of such assays. The settings on record: source organism: Dengue virus.
The next assay concerns the target HLA-A*30:02. Put plainly: IEDB peptide-MHC binding, purified MHC/competitive/radioactivity; filed as Kd, often an IC50 or EC50 that approximates it; ≥ and ≤ were set here for values at or beyond the usual limits of such assays. The settings on record: source organism: Dengue virus 2 Jamaica/1409/1983.
Assay [6] addresses HLA-A*02:01. Put plainly: IEDB peptide-MHC binding, purified MHC/competitive/fluorescence; ≥ and ≤ were set here for values at or beyond the usual limits of such assays. To be noted: source organism: Zaire ebolavirus.
The target in another assay is HLA-A*24:02. Described as above. To be noted: source organism: Zaire ebolavirus.
The target in another assay is HLA-A*01:01. Put plainly: IEDB peptide-MHC binding, purified MHC/competitive/radioactivity; filed as Kd, often an IC50 or EC50 that approximates it; ≥ and ≤ were set here for values at or beyond the usual limits of such assays. The settings on record: source organism: Dengue virus 2 Jamaica/1409/1983.
Where [7] appears, read: source organism: Pan troglodytes.
Where [8] appears, read: source organism: Dengue virus 2 Jamaica/1409/1983.
[9] abbreviates: source organism: Camelpox virus M-96.
Where [10] appears, read: source organism: Dengue virus 1 Brazil/97-11/1997.
[11] abbreviates: source organism: Marburg virus - Musoke, Kenya, 1980.
The mark [12] stands for this setting: source organism: Dengue virus 3 Martinique/1243/1999.
Setting [13] is: source organism: Vaccinia virus.
The mark [14] stands for this setting: source organism: Zaire ebolavirus.

With YRAVVPLVY, the Kd is 12600 nM with HLA-B*57:01 [1] (setting [7]) and 1500 nM with HLA-B*58:01 [2] (setting [7]).

For the sequence RSVALVPHV, the Kd in the assay with HLA-B*58:01 [2] (setting [8]) amounted to 8.81 nM.

As to ISGSNIVIF, the Kd in the assay with HLA-B*15:17 (setting [9]) is 155 nM; with HLA-B*57:01 [3] (setting [9]) it was not below 20000 nM; with HLA-B*58:01 [4] (setting [9]), 904 nM.

For KQIQKVETW, the Kd with HLA-A*32:01 came out at 49.5 nM; in the assay with HLA-B*57:01 [1] (setting [10]), 460 nM; in the assay with HLA-B*58:01 [2] (setting [10]) it was 4.77 nM.

The sequence ATMATRRGY registered a Kd with HLA-A*03:01 of 125 nM.

Turning to KRLSVNQKY, the Kd in the assay with HLA-B*27:05 was 62.2 nM; with HLA-B*48:01 (source organism: Francisella tularensis subsp. holarctica LVS), not below 20000 nM.

As for GTSGSPIVDR, in the assay with HLA-B*57:01 [1] (setting [8]), the Kd came out at 2340 nM.

As for ATAVNQECW, the Kd with HLA-B*15:17 (setting [11]) turned out to be 4.1 nM; with HLA-B*57:01 [3] (setting [11]), 122 nM; with HLA-B*58:01 [4] (setting [11]) it was 51.6 nM.

For KLYEGDLRV, the Kd in the assay with HLA-A*02:01 [5] was not above 1 nM; in the assay with HLA-A*02:11, not above 1 nM; in the assay with HLA-A*02:12, 5 nM; with HLA-A*02:19 it was 8 nM.

Turning to VIASSGMLW, the Kd in the assay with HLA-B*58:01 [2] (setting [12]) was 56 nM.

On to LASSLLKNDI, for which the values for the Kd with HLA-B*57:01 [1] (setting [8]) and with HLA-B*58:01 [2] (setting [8]) were 1280 nM and 717 nM, respectively.

Turning to KGVEYNIDK, the IC50 with HLA-A*11:01 (setting [13]) worked out at 31600 nM.

As to KPYMAMSAL, in the assay with HLA-B*48:01 (source organism: Salmonella enterica subsp. enterica serovar Typhimurium), the Kd amounted to 541 nM.

As to FTAYYLILA, in the assay with HLA-A*68:02 (source organism: Cryptosporidium parvum Iowa II), the Kd was determined as 9.7 nM.

GTSGSPIINR: the Kd in the assay with HLA-A*68:01 was 13.8 nM; in the assay with HLA-B*57:01 [1] (setting [12]), 4000 nM.

Take NVTTQSIHE: the IC50 in the assay with HLA-A*11:01 (setting [13]) is not below 148000 nM.

As for FASALTALND, the Kd came out at 636 nM with HLA-B*57:01 [1] (setting [8]) and 1570 nM in the assay with HLA-B*58:01 [2] (setting [8]).

KLQLKGMSY: the Kd was not below 20000 nM with HLA-B*46:01 and 131 nM in the assay with HLA-A*30:02.

On to SSGYYSTTI, for which the IC50 with HLA-A*02:01 [6] was found to be 65200 nM; with HLA-A*11:01 (setting [14]), 33800 nM; in the assay with HLA-A*24:02 it was 2140 nM.

Regarding RSLIGNEEY, the results for the Kd in the assay with HLA-A*01:01, in the assay with HLA-A*30:02 and with HLA-B*58:01 [2] (setting [8]) were 6720 nM, not below 30100 nM and 27.2 nM, respectively.

The sequence SIPLGVIHN showed an IC50 with HLA-A*11:01 (setting [14]) not below 158000 nM.

As to RRDKRSVAL, the Kd with HLA-B*48:01 (source organism: Dengue virus) was found to be 153 nM.

SSIIKTFVV: in the assay with HLA-A*68:02 (source organism: Bacillus anthracis str. A0488), the Kd is 17.9 nM.

For the sequence VASEMAEALK, the Kd with HLA-B*58:01 [2] (setting [10]) is not below 10000 nM.

The sequence GRMEKKTWK had a Kd in the assay with HLA-B*48:01 (source organism: West Nile virus) not below 20000 nM.

For WMSSEGAWKH, in the assay with HLA-B*58:01 [2] (setting [8]), the Kd turned out to be 215 nM.
